Data as given in the supplement of paper PMC9112550, “Optimization of the antimicrobial peptide Bac7 by deep mutational scanning” (BMC Biology, 2022).

Each sequence was assayed on Escherichia coli TOP10 (assay: shrunken log2 fold change of peptide-encoding DNA abundance (4.5 h post-induction vs induction); higher = less antimicrobial activity (less host growth inhibition)). Conditions: time post-induction: 4.5 h; library: site-saturation at positions 5, 18, 19, 20.
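Note: peptides expressed intracellularly from a pBAD plasmid library in pooled LB shake-flask culture, induced with 0.3% L-arabinose, DNA abundance read by NGS, three biological replicates, DESeq2 with apeglm shrinkage.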

Row | Sequence | shrunken log2 fold change
1 | RRIRRRPPRLPRPRPRPNYIPRP | -0.237
2 | RRIRFRPPRLPRPRPRPRIDPRP | -0.0186
3 | RRIRPRPPRLPRPRPRPKRVPRP | 0.0499
4 | RRIRSRPPRLPRPRPRPMSTPRP | -0.13
5 | RRIRWRPPRLPRPRPRPLCFPRP | -0.101
6 | RRIRKRPPRLPRPRPRPQRAPRP | 0.944
7 | RRIRWRPPRLPRPRPRPCAAPRP | 1.32
8 | RRIRPRPPRLPRPRPRPFLAPRP | 0.0316
9 | RRIRSRPPRLPRPRPRPIARPRP | 0.029
10 | RRIRTRPPRLPRPRPRPNTIPRP | -0.596
11 | RRIRQRPPRLPRPRPRPIAQPRP | 0.0718
12 | RRIRHRPPRLPRPRPRPWWLPRP | -0.0295
13 | RRIRIRPPRLPRPRPRPTASPRP | 0.132
14 | RRIRTRPPRLPRPRPRPHKDPRP | -0.973
15 | RRIRMRPPRLPRPRPRPHDKPRP | 0.0701
16 | RRIRGRPPRLPRPRPRPNVGPRP | 0.125
17 | RRIRNRPPRLPRPRPRPTLHPRP | -0.0665
18 | RRIRLRPPRLPRPRPRPVVEPRP | 0.175
19 | RRIRPRPPRLPRPRPRPKRYPRP | 0.281
20 | RRIRCRPPRLPRPRPRPQIAPRP | -0.0699
21 | RRIRHRPPRLPRPRPRPVGFPRP | -0.203
22 | RRIRWRPPRLPRPRPRPMRIPRP | 0.222
23 | RRIRYRPPRLPRPRPRPYWEPRP | -0.0328
24 | RRIRPRPPRLPRPRPRPRVIPRP | 0.033
25 | RRIRYRPPRLPRPRPRPNDSPRP | -0.349

Row | Sequence | shrunken log2 fold change
26 | RRIRIRPPRLPRPRPRPWQMPRP | 0.0562
27 | RRIRCRPPRLPRPRPRPHDEPRP | -0.0201
28 | RRIRGRPPRLPRPRPRPWLQPRP | 0.201
29 | RRIRQRPPRLPRPRPRPFSWPRP | -0.0597
30 | RRIRYRPPRLPRPRPRPFMTPRP | -2.5
31 | RRIRNRPPRLPRPRPRPPRKPRP | 0.523
32 | RRIRIRPPRLPRPRPRPKHNPRP | -0.349
33 | RRIRARPPRLPRPRPRPRSYPRP | 0.242
34 | RRIRKRPPRLPRPRPRPWCGPRP | 0.153
35 | RRIRIRPPRLPRPRPRPISFPRP | 0.00109
36 | RRIRCRPPRLPRPRPRPAGSPRP | 0.432
37 | RRIRNRPPRLPRPRPRPFVDPRP | -0.725
38 | RRIRSRPPRLPRPRPRPDMCPRP | 0.0552
39 | RRIRNRPPRLPRPRPRPSSCPRP | -0.063
40 | RRIRARPPRLPRPRPRPAHWPRP | 0.535
41 | RRIRMRPPRLPRPRPRPNIRPRP | -0.169
42 | RRIRDRPPRLPRPRPRPFFYPRP | -0.0714
43 | RRIRGRPPRLPRPRPRPQNNPRP | -0.0456
44 | RRIRSRPPRLPRPRPRPNPKPRP | 0.0189
45 | RRIRWRPPRLPRPRPRPSENPRP | -0.134
46 | RRIRFRPPRLPRPRPRPGSEPRP | -0.0634
47 | RRIRQRPPRLPRPRPRPSRGPRP | 0.269
48 | RRIRSRPPRLPRPRPRPCMHPRP | -0.514
49 | RRIRDRPPRLPRPRPRPQCKPRP | 0.0759
50 | RRIRTRPPRLPRPRPRPFWVPRP | -0.0427

Row | Sequence | shrunken log2 fold change
51 | RRIRPRPPRLPRPRPRPKKTPRP | -0.107
52 | RRIRFRPPRLPRPRPRPHHFPRP | -0.053
53 | RRIRKRPPRLPRPRPRPIMQPRP | -0.0251
54 | RRIRPRPPRLPRPRPRPKTRPRP | 0.382
55 | RRIRYRPPRLPRPRPRPMYWPRP | -0.451
56 | RRIRDRPPRLPRPRPRPRMVPRP | -0.177
57 | RRIRCRPPRLPRPRPRPVMFPRP | -0.154
58 | RRIRWRPPRLPRPRPRPCVYPRP | -0.00208
59 | RRIRSRPPRLPRPRPRPFVCPRP | -0.326
60 | RRIRVRPPRLPRPRPRPAKGPRP | -0.283
61 | RRIRVRPPRLPRPRPRPHHAPRP | -0.0431
62 | RRIRDRPPRLPRPRPRPSNSPRP | -0.365
63 | RRIRYRPPRLPRPRPRPRNKPRP | -0.661
64 | RRIRVRPPRLPRPRPRPWNMPRP | -0.192
65 | RRIRLRPPRLPRPRPRPKVVPRP | -0.0761
66 | RRIRQRPPRLPRPRPRPIKIPRP | -0.0595
67 | RRIRNRPPRLPRPRPRPKTMPRP | 0.177
68 | RRIRDRPPRLPRPRPRPHDIPRP | 0.0555
69 | RRIRQRPPRLPRPRPRPNSCPRP | 0.0314
70 | RRIRGRPPRLPRPRPRPKVMPRP | 0.696
71 | RRIRWRPPRLPRPRPRPTASPRP | 0.977
72 | RRIRNRPPRLPRPRPRPSVGPRP | -0.0175
73 | RRIRSRPPRLPRPRPRPNHIPRP | -0.651
74 | RRIRQRPPRLPRPRPRPHRKPRP | -0.227
75 | RRIRWRPPRLPRPRPRPGQTPRP | -0.0122

Row | Sequence | shrunken log2 fold change
76 | RRIRPRPPRLPRPRPRPIGVPRP | 0.108
77 | RRIRYRPPRLPRPRPRPQNRPRP | -0.0755
78 | RRIRQRPPRLPRPRPRPMYCPRP | -0.526
79 | RRIRSRPPRLPRPRPRPPISPRP | -0.0261
80 | RRIRLRPPRLPRPRPRPIADPRP | -0.0951
81 | RRIRCRPPRLPRPRPRPEASPRP | 0.14
82 | RRIRKRPPRLPRPRPRPKNAPRP | 0.216
83 | RRIRIRPPRLPRPRPRPWMWPRP | 0.0832
84 | RRIRERPPRLPRPRPRPPPIPRP | 0.267
85 | RRIRSRPPRLPRPRPRPTLMPRP | 0.091
86 | RRIRDRPPRLPRPRPRPQQHPRP | 0.0276
87 | RRIRVRPPRLPRPRPRPCVCPRP | -0.0618
88 | RRIRERPPRLPRPRPRPNKSPRP | -0.369
89 | RRIRARPPRLPRPRPRPRVKPRP | 0.488
90 | RRIRLRPPRLPRPRPRPTHWPRP | 0.416
91 | RRIRFRPPRLPRPRPRPGLGPRP | 0.603
92 | RRIRDRPPRLPRPRPRPEIKPRP | 1.54
93 | RRIRGRPPRLPRPRPRPMRSPRP | 0.64
94 | RRIRNRPPRLPRPRPRPPYHPRP | -0.362
95 | RRIRARPPRLPRPRPRPCVEPRP | 0.317
96 | RRIRHRPPRLPRPRPRPVWAPRP | 0.193
97 | RRIRSRPPRLPRPRPRPCFGPRP | -0.217
98 | RRIRHRPPRLPRPRPRPQHMPRP | -1.2
99 | RRIRYRPPRLPRPRPRPYYFPRP | -2.19
100 | RRIRGRPPRLPRPRPRPHAWPRP | 0.595

Row | Sequence | shrunken log2 fold change
101 | RRIRMRPPRLPRPRPRPCCSPRP | 0.0205
102 | RRIRTRPPRLPRPRPRPFRNPRP | 0.0337
103 | RRIRHRPPRLPRPRPRPLHDPRP | -0.277
104 | RRIRRRPPRLPRPRPRPRCPPRP | 0.605
105 | RRIRSRPPRLPRPRPRPLNMPRP | -0.316
106 | RRIRERPPRLPRPRPRPYIFPRP | -0.15
107 | RRIRTRPPRLPRPRPRPWDDPRP | 0.033
108 | RRIRMRPPRLPRPRPRPQKYPRP | 0.136
109 | RRIRRRPPRLPRPRPRPHVYPRP | -0.341
110 | RRIRVRPPRLPRPRPRPQQAPRP | -0.0616
111 | RRIRERPPRLPRPRPRPGQAPRP | -0.00166
112 | RRIRRRPPRLPRPRPRPVFFPRP | 0.255
113 | RRIRWRPPRLPRPRPRPGMIPRP | -0.0827
114 | RRIRHRPPRLPRPRPRPKMIPRP | -0.254
115 | RRIRLRPPRLPRPRPRPRTRPRP | 0.519
116 | RRIRGRPPRLPRPRPRPITPPRP | -0.0185
117 | RRIRARPPRLPRPRPRPDRQPRP | 0.0329
118 | RRIRDRPPRLPRPRPRPHDEPRP | 0.167
119 | RRIRERPPRLPRPRPRPYYKPRP | -0.231
120 | RRIRYRPPRLPRPRPRPNPFPRP | -0.0444
121 | RRIRLRPPRLPRPRPRPPWCPRP | 0.402
122 | RRIRNRPPRLPRPRPRPKGMPRP | -0.112
123 | RRIRTRPPRLPRPRPRPHLFPRP | -0.111
124 | RRIRLRPPRLPRPRPRPDITPRP | -0.00678
125 | RRIRVRPPRLPRPRPRPQDKPRP | -0.603

Row | Sequence | shrunken log2 fold change
126 | RRIRPRPPRLPRPRPRPVQFPRP | 0.197
127 | RRIRTRPPRLPRPRPRPSKNPRP | -0.325
128 | RRIRSRPPRLPRPRPRPWQNPRP | -0.194
129 | RRIRQRPPRLPRPRPRPSIVPRP | -0.323
130 | RRIRDRPPRLPRPRPRPAIMPRP | 0.373
131 | RRIRTRPPRLPRPRPRPLSDPRP | -0.029
132 | RRIRCRPPRLPRPRPRPSQLPRP | -0.357
133 | RRIRHRPPRLPRPRPRPGMQPRP | 0.0824
134 | RRIRARPPRLPRPRPRPLEYPRP | -0.498
135 | RRIRLRPPRLPRPRPRPDTKPRP | -0.122
136 | RRIRHRPPRLPRPRPRPHYNPRP | -1.11
137 | RRIRHRPPRLPRPRPRPHGWPRP | 0.0177
138 | RRIRARPPRLPRPRPRPLKKPRP | 0.0777
139 | RRIRRRPPRLPRPRPRPCHMPRP | -0.237
140 | RRIRCRPPRLPRPRPRPEHPPRP | -0.131
141 | RRIRRRPPRLPRPRPRPWEIPRP | -0.0233
142 | RRIRTRPPRLPRPRPRPKVSPRP | -0.0491
143 | RRIRKRPPRLPRPRPRPVDAPRP | 0.493
144 | RRIRWRPPRLPRPRPRPVKMPRP | 0.125
145 | RRIRLRPPRLPRPRPRPPEKPRP | 0.0964
146 | RRIRMRPPRLPRPRPRPENQPRP | 1.86
147 | RRIRHRPPRLPRPRPRPLSKPRP | -0.746
148 | RRIRIRPPRLPRPRPRPHWNPRP | -0.758
149 | RRIRERPPRLPRPRPRPYNQPRP | -0.0858
150 | RRIRARPPRLPRPRPRPDPLPRP | 0.867
